Our source for the A450 values is patent US20070178531A1 (BIOCHECK, published 2007).

Experiment [1] deals with T1, Human Id3: Histidine (human, UniProt Q02535 1-119 at identity 1.00)).
T1 construct: Fusion protein made in E. coli from vector pGW07; also called h-Id3: His; Human Id3 (coated wells); not shown: His tag
T1 chain: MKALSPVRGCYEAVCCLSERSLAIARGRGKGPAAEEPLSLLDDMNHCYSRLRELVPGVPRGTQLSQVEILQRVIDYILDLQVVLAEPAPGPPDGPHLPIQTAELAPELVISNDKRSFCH
As to the kind of experiment: ELISA, Ab 0.500 µg/ml. For orientation: An ELISA detects its analyte on a solid surface through an enzyme-linked reagent.

The target of experiment [2] is T2, Mouse Id2: Histidine (mouse, UniProt P41136 1-134, limits assumed).
T2 construct: Fusion protein made in E. coli from vector pGW07; also called m-Id2: His; not shown: His tag
T2 sequence (looked up): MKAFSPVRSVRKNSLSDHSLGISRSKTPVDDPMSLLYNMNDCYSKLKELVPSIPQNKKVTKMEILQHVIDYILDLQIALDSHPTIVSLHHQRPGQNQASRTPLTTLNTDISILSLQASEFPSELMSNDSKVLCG
Put plainly: ELISA, Ab 0.500 µg/ml.

Experiment [3] concerns the target T3, Mouse Id3: Histidine (mouse, UniProt P41133 1-119).
T3 construct: Fusion protein made in E. coli from vector pGW07; also called m-Id3: His; Mouse Id3 (coated wells); not shown: His tag
T3 sequence: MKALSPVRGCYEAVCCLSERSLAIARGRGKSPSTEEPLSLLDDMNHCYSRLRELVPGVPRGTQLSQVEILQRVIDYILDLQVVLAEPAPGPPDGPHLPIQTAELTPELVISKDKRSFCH
As to the kind of experiment: ELISA, Ab 0.500 µg/ml.

The target of experiment [4] is T4, Human Id2: Histidine (human, UniProt Q02363 1-134, limits assumed).
T4 construct: Fusion protein made in E. coli from vector pGW07; also called h-Id2: His; not shown: His tag
T4 sequence (looked up): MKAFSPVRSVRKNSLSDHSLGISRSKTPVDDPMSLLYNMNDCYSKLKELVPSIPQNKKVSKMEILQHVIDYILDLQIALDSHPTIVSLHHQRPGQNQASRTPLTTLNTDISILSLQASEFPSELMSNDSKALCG
Put plainly: ELISA, Ab 0.500 µg/ml.

Experiment [5] has as its target T5, Mouse Id1: Histidine (mouse, UniProt P20067-2 1-148, limits assumed).
T5 construct: Fusion protein made in E. coli from vector pGW07; also called m-Id1-His; not shown: His tag
T5 sequence (looked up): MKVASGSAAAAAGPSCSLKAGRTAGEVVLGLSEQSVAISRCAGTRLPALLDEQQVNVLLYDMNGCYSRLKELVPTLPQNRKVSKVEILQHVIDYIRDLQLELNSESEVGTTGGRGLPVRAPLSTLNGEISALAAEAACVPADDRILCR
Put plainly: ELISA, Ab 0.500 µg/ml.

Experiment [6] concerns the target T6, Human Id1: Histidine (human, UniProt P41134 1-155, limits assumed).
T6 construct: Fusion protein made in E. coli from vector pGW07; also called h-Id1: his; not shown: His tag
T6 sequence (looked up): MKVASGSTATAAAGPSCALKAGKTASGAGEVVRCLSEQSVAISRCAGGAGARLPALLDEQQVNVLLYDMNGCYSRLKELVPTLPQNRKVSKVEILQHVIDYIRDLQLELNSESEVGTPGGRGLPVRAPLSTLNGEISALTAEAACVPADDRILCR
As to the kind of experiment: ELISA, Ab 0.500 µg/ml.

Experiment [7] deals with T1, Human Id3: Histidine. Put plainly: ELISA, positive control (stated to be BCH-4/6-1) 0.50 µg/ml. Here is the method:
(§1) 1. Dispense 100 μL of antibody diluent, diluted rabbit monoclonal human Id3, and mouse/human Id3 hybridoma supernatants into appropriate wells. […] 2. Incubate at room temperature with mechanical shaking at 750 rpm for 90 minutes. [0165] 3. Remove the incubation mixture by flicking plate content into an appropriate waste container followed by rinsing the wells 5 times with distilled water. [0166] 4. Strike the wells sharply onto absorbent paper or paper towels to remove all residual water droplets. [0167] 5. Dispense 100 μL of 1:50,000 Goat Anti-Rabbit IgG-HRP Conjugate Reagent into each well. Gently mix for 5 seconds. [0168] 6. Incubate at room temperature with mechanical shaking at 750 rpm for 90 minutes. [0169] 7. Repeat procedures 3 and 4. [0170] 8. Dispense 100 μL of TMB Reagent into each well. Gently mix for 5 seconds. [0171] 9. Incubate at room temperature with mechanical shaking at 750 rpm for 20 minutes. […] 10. Add 100 μL of Stop Solution (1N HCl) into each well. [0173] 11. Gently mix for 10 seconds to ensure a complete mixing. [0174] 12. Read optical density at A450 nm.
(§2) The materials and method are the same as those described in Example 9 except the following.
(§3) Rabbit monoclonal anti-mouse Id3, hybridoma supernatant was used as the test antibody. Protein G purified, rabbit monoclonal anti-mouse/human Id3 antibody, BCH-4/6-1, 0.92 mg/ml in 0.25% BSA was used as positive controls.

Experiment [8] deals with T3, Mouse Id3: Histidine. The description is as above. The protocol: as §1, §2, §3
For experiment [9], the target named is T1, Human Id3: Histidine. Put plainly: ELISA, Ab 0.050 µg/ml.
Experiment [10] deals with T3, Mouse Id3: Histidine. As to the kind of experiment: ELISA, Ab 0.050 µg/ml.
The target of experiment [11] is T1, Human Id3: Histidine. As to the kind of experiment: ELISA, Ab 0 µg/ml (blank).
For experiment [12], the target named is T2, Mouse Id2: Histidine. As to the kind of experiment: ELISA, Ab 0 µg/ml (blank).
Experiment [13] addresses T3, Mouse Id3: Histidine. As to the kind of experiment: ELISA, Ab 0 µg/ml (blank).
The target in experiment [14] is T4, Human Id2: Histidine. As to the kind of experiment: ELISA, Ab 0 µg/ml (blank).
Experiment [15] addresses T5, Mouse Id1: Histidine. As to the kind of experiment: ELISA, Ab 0 µg/ml (blank).
Experiment [16] concerns the target T6, Human Id1: Histidine. As to the kind of experiment: ELISA, Ab 0 µg/ml (blank).

B1: rabbit monoclonal anti-mouse/human Id3, clone #BCH-4/#6-1 (antibody, V domains shown)
VH: QSVEESGGRLVTPGTPLTLTCTASGFSLSNVYIHWVRQAPGKGLEWIGYISDGDTARYATWAKGRFTISKTSSTTVNLKMTSLTTEDTATYFCARQGFNIWGPGTLVTVSL
VL: AVLTQTPSPVSAAVGGTVSISCQSSQSVWNNNWLSWFQQKPGQPPKLLIYETSKLESGVPSRFKGSGSGTQFTLTISDVQCDDAATYYCLGGYWTTSDNNVFGGGTEVVVK
notes: Rabbit IgG from a rabbit hybridoma; also called m/h Id3 MoAb 6-1
Take B1: the A450 was 3.3 A450 in the experiment with Human Id3: Histidine [1]; 0.073 A450 with Mouse Id2: Histidine [2]; 3.47 A450 in the experiment with Mouse Id3: Histidine [3]; 0.062 A450 in the experiment with Human Id2: Histidine [4]; 0.067 A450 in the experiment with Mouse Id1: Histidine [5]; 0.062 A450 with Human Id1: Histidine [6]. Further, the A450 was 2.83 A450 with Human Id3: Histidine [7]; 3.18 A450 with Mouse Id3: Histidine [8]; 1.52 A450 with Human Id3: Histidine [9]; 1.72 A450 with Mouse Id3: Histidine [10]; 0.047 A450 in the experiment with Human Id3: Histidine [11]; 0.058 A450 with Mouse Id2: Histidine [12]. The A450 in the experiment with Mouse Id3: Histidine [13] turned out to be 0.048 A450; with Human Id2: Histidine [14], 0.064 A450; with Mouse Id1: Histidine [15], 0.061 A450; with Human Id1: Histidine [16], 0.058 A450.
